Where a chain is given by its changes, count along the chain named.

Series [1] deals with T1, human topoisomerase I (human, UniProt P11387 1-765, limits assumed).
T1 construct: also called top1; top 1
T1 sequence (looked up): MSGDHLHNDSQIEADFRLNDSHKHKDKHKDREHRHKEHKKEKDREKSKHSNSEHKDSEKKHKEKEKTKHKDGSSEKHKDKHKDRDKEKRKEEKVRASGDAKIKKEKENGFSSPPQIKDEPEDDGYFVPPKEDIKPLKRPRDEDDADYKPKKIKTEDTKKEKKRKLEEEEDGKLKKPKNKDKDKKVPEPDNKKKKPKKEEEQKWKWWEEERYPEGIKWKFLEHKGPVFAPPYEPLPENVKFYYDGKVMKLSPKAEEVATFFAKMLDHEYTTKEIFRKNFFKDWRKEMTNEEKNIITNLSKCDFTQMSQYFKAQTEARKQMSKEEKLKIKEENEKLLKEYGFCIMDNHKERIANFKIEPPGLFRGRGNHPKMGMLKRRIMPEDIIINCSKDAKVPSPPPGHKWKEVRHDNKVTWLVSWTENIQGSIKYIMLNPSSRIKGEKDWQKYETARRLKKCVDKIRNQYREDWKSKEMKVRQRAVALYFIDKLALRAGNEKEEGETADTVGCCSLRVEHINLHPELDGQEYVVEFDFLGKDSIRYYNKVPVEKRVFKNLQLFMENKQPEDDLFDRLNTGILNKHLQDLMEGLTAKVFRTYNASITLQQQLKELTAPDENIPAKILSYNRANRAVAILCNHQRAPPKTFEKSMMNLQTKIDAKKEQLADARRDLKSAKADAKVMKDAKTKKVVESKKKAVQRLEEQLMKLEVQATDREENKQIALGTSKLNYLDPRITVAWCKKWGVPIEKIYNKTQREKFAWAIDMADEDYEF
Briefly: phage display biopanning against top1-DNA-9AC, analytical titering against top1. The method, then:
Phage display: Phage display was performed as described by Smith (Parmley 1989). Briefly, top1 was first biotinylated with a biotin derivative containing a spacer engineered to reduced steric interference (Pierce EZ-Link Biotin-PEO-Amine). The reaction was performed at a 5:1 molar ratio of biotin:top1 in 10 mM HEPES (pH 8.2) buffered 500 mM NaCl. The unreacted biotin was removed by gel filtration in a Biospin 30 column (BioRad) and biotinylated top1 was assayed for activity using a pull down method with streptavidin coated beads. The biotinylated top1 maintained catalytic activity. For phage display, 20 μg biotinylated top1 was reacted with a mixture of pBR322 and 9AC and 20 μg was applied to a 30 mm plastic petri dish coated with 10 μg of neutravidin (Pierce). The dish was then blocked with 3.0% bovine serum albumin, and 10 μl of a 10⁹/μl titer phage library in 100 μl TBS-0.05% Tween was added. Phage were allowed to associate with gentle rocking for 2 hours at 4° C., and then washed repeatedly over 2 hours at 4° C. with buffered saline containing 0.1% Tween. […]
Analytical titering: Ten μl of amplified phage clones (approximately 10¹² cfu) were incubated in 50 nM top1 for one hour at 4° C. on a rocker. […] Competent E. coli were added directly to the washed plates and the output assessed by counting a 10⁻⁶ dilution of the culture on tetracycline plates (FIG. 1). […]

The target in series [2] is T1, human topoisomerase I. Description: SPR (BIAcore 2000), T1BP2 on CM5 chip, top1 as analyte, Langmuir model. The method, then: (§1) Binding analysis: The binding analysis of the peptides was performed on a BIAcore 2000 instrument. A four channel CM5 sensor chip was derivatized with three top1 binding peptides (T1BPs 1, 2 and 4) and a control surface left blank. Catalytically active top1 was used as the mobile or analyte phase and diluted in 150 mM NaCl, 30 mM HEPES, 0.05% P20 and injected at various concentrations (8.0, 4.0, 2.0, 1.0 and 0.4 nM) through the instrument's microfluidics sample handling system at a flow rate of 30 μl/minute. With each injection of a particular concentration of top1, association and dissociation data for three peptides were generated. Binding constants were determined using the BIAevaluation 2.1 software.
T1BP2 affinity for top1: T1BP2 had remarkable affinity for top1 when assayed by surface plasmon resonance (FIG. 2a).
A general note: SPR reads the build-up and loss of mass on a sensor chip optically.

Series [3] deals with T1, human topoisomerase I. Briefly: SPR (BIAcore), T1BP2 on the chip, top1 as analyte, Langmuir model [cont'd) B]. The method, then: These top1 experiments were evaluated with BIAevaluation Software 3.1 using Langmuir Kinetics to model the interaction. The accuracy of the fit to the model is illustrated by dashed lines representing actual data and narrow lines representing the fitted curves.
as §1

Series [4] has as its target T1, human topoisomerase I. Description: fluorescence polarization, human placental 91 kDa top1 titrated into 500 nM fluorescein-labeled T1BP1; the concentration is that of top1. A general note: Polarisation of emitted light reports the rotation of a fluorescent probe.
Series [5] addresses T1, human topoisomerase I. Description: SPR (BIAcore), 100 kDa top1 applied at 1, 2.5, 5, 10 and 20 nM to the CPP1 flow cell, global fit [left panel]. The method, then: (§2) Top 1 was applied to flow cells in 1, 2.5, 5, 10 and 20 nM concentrations. The overlaying curves represent the actual data for a given concentration of top 1 and the “fit” curves. Data were fit using the BIAeval 3000 global fitting software.

Series [6] addresses T1, human topoisomerase I. Description: SPR (BIAcore), 100 kDa top1 applied at 1, 2.5, 5, 10 and 20 nM to the CPP4 flow cell, global fit [right panel]. The method, then: as §2
Another series concerns the target T2, T1BP2.
T2 chain: SAYAATVRGPLSSAS

B1: T1BP5 (peptide)
peptide: EGQFTFPRGASE
notes: 12-mer, truncated due to a stop codon; also called CPP6; EGQFTFPRGASE
Consider B1, for which, in the series with human topoisomerase I [1], the binding result is reported as “binds”.

B2: T1BP2 (peptide)
peptide: SAYAATVRGPLSSAS
notes: Coupled to a CM5 chip for SPR; also called T1PB2; CPP3
The Kd is the free concentration of one partner at which half of the binding sites on the other are occupied at equilibrium, for simple one-to-one binding. Low values mean a tighter complex, high ones a looser complex. One may read the koff as the rate constant with which the complex falls apart. By kon is commonly meant a measure of how fast the partners come together. On to B2, for which the Kd in the series with human topoisomerase I [2] is 665 nM. For the same molecule, in the series with human topoisomerase I [3], the Ka turned out to be 1.5e+06 M⁻¹, the “kd (s-1) (observed) at [Top1] 0.4 nM” value was found to be 0.0028 s⁻¹, the “kd (s-1) (observed) at [Top1] 1.0 nM” value turned out to be 0.0028 s⁻¹ and the “kd (s-1) (observed) at [Top1] 2.0 nM” value is 0.00281 s⁻¹. Besides, in the series with human topoisomerase I [3], the “kd (s-1) (observed) at [Top1] 4.0 nM” value worked out at 0.00282 s⁻¹, the “kd (s-1) (observed) at [Top1] 8.0 nM” value is 0.00283 s⁻¹, the koff was 0.0028 s⁻¹ and the kon was 4210 M⁻¹ s⁻¹.
On to RNQGPVKMVFPIAPS (also called CPP5) [T1BP4], for which the binding result with human topoisomerase I [1] was “binds”.
In general, EC50 (read off the curve) refers to the midpoint of the concentration-response curve. On to SSQVVGVPQLMQSSP (also called CPP2) [T1BP1], for which, in the series with human topoisomerase I [4], the “EC50 (read off the curve)” value was approximately 100 nM.
For the molecule LAVRRYALGNGYDWS [CPP1], in the series with human topoisomerase I [5], the binding result is reported as “binds”.
Take DRVPLVHVIFNSFGY (also called CPP4) [T1BP3]: in the series with human topoisomerase I [6], the binding result is given as “binds”.

B3: human topoisomerase I (protein)
chain: T1 sequence (looked up)
Consider B3, for which, in the series with T1BP2, the “cleavage complex formation (top1-DNA-9AC cleavage assay)” value is “T1BP2 increased cleavage complex formation approximately 50%”.

Source of the values: patent US20100137221A1, “PEPTIDES THAT INTERACT WITH TOPOISOMERASE I AND METHODS THEREOF” (UNIVERSITY UTAH RESEARCH FOUNDATION, priority 2007, published 2010).
